This assay addresses HLA-DR molecules of the vaccinated patients. The assay is described as follows: cell-based or functional assay.

Data on one molecule can be found in US20200078439A1.

With TLGEFLKLDRERAKN [BIR-002 (Survivin 97-111: …)], the immuno-response in vaccinated patients in vivo (IFN-g ELISPOT, +/- ICS) (out of 19 patients) amounted to 16.
